Experimental data from patent publication US20230355708A1 (priority 2020, published 2023).
“Also recorded” adds a separate entry of the source.

B1: CVN: lectin cyanovirin-N, SEQ ID NO:1 (protein)
chain: LGKFSQTCYNSAIQGSVLTSTCERTNGGYNTSSIDLNSVIENVDGSLKWQPSNFIETCRNTQLAGSSELAAECKTRAQQFVSTKINLDDHIANIDGTLKYE
B2: P51G-CVN: mutant CVN wherein Pro 51 is mutated to Gly, SEQ ID NO:3 (protein)
chain: LGKFSQTCYNSAIQGSVLTSTCERTNGGYNTSSIDLNSVIENVDGSLKWQGSNFIETCRNTQLAGSSELAAECKTRAQQFVSTKINLDDHIANIDGTLKYE

Key:
SARS-CoV-2 pseudoviruses [1] = type: cell-based
SARS-CoV-1 pseudoviruses [2] = type: cell-based
HIV-1 pseudovirus [3] = type: cell-based
SARS-CoV-2 pseudoviruses [4] = system: SARS-CoV-2 pseudoviruses
SARS-CoV-1 pseudoviruses [5] = system: SARS-CoV-1 pseudoviruses
HIV-1 pseudovirus [6] = system: HIV-1 pseudovirus
SARS-CoV-2 pseudoviruses [7] = type: cell-based; remark: listed apart in the source
SARS-CoV-1 pseudoviruses [8] = type: cell-based; remark: listed apart in the source
[9] = biological target: SARS-CoV-2 spike S1 subunit (Severe acute respiratory syndrome coronavirus 2, UniProt P0DTC2)
[10] = biological target: SARS-CoV-2 spike S2 subunit (Severe acute respiratory syndrome coronavirus 2, UniProt P0DTC2)
gp120 = gp120 (Human immunodeficiency virus type 1 group M subtype B, UniProt P35961); settings: SPR
[11] = biological target: receptor binding domain (RBD) (Severe acute respiratory syndrome coronavirus 2, UniProt P0DTC2)

Molecule | inhibition of SARS-CoV-2 pseudovirus infection (SARS-CoV-2 pseudoviruses [1]) | inhibition of SARS-CoV-1 pseudovirus infection (SARS-CoV-1 pseudoviruses [2]) | inhibition of HIV-1 infection (HIV-1 pseudovirus [3]) | virolysis of SARS-CoV-2 pseudoviruses (SARS-CoV-2 pseudoviruses [4]) | virolysis of SARS-CoV-1 pseudoviruses (SARS-CoV-1 pseudoviruses [5]) | virolysis of HIV-1 (HIV-1 pseudovirus [6]) | virolysis of Env Neg pseudovirus (Env Neg pseudovirus) | irreversible inactivation of SARS-CoV-2 (SARS-CoV-2 pseudoviruses [7]) | irreversible inactivation of SARS-CoV-1 (SARS-CoV-1 pseudoviruses [8]) | binding of S1 to lectin [9] | stability of lectin-S2 complexes [10] | stoichiometry of binding, S2 versus S1 [10] | binding to gp120 (gp120) | binding to receptor binding domain (RBD) [11] | binding to S1 subunit [9] | binding to S2 subunit [10]
B1 | inhibited infection at nanomolar potencies | inhibition | inhibition | more potent than CVN-DLI; also recorded: capable of causing cell-free virolysis | no virolytic effect | no virolytic effect | no virolytic effect | irreversible inactivation | irreversible inactivation | Relatively lower binding | very stable | higher to the S2 subunit | occurred | no binding | – | –
B2 | decreased inhibition of infection | – | – | reduced virolysis | – | – | – | – | – | – | – | – | – | – | reduced affinity as compared to CVN | reduced affinity as compared to CVN
